“Also recorded” adds a separate entry of the source.
Assays:
[1] = system: β-glucuronidase (GUS) reporter; assay: Relative promoter activity rank from comparative GUS reporter studies (histochemical, fluorometric and/or Real Time PCR); type: cell-based, Yarrowia lipolytica; design: key: a ‘1’ corresponds to the promoter with lowest activity; a ‘7’ corresponds to the promoter with highest activity; conditions: relative to other promoters
How it was run: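 GUS activity from each promoter construct was measured by histochemical and/or fluorometric assays and/or Real Time PCR. Promoters were ranked relative to one another, from 1 (lowest activity) to 7 (highest activity).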

[2] = system: β-glucuronidase (GUS) reporter; assay: Comparative analysis of promoters by histochemical analysis of GUS expression; type: cell-based, Yarrowia lipolytica; conditions: ATCC #76982 strains, MM, FIG. 5B
Experimental: Comparative studies investigating the promoter activities of the TEF, GPD, GPDIN, GPM, GPAT, FBA, FBAIN and YAT1 promoters were performed, by synthesizing constructs comprising each promoter and the E. coli gene encoding β-glucuronidase (GUS) as a reporter gene (Jefferson, R. A. Nature. 14(342):837-838 (1989)). Then, GUS activity was measured by histochemical and fluorometric assays (Jefferson, R. A. Plant Mol. Biol. Reporter 5:387-405 (1987)) and/or by using Real Time PCR for mRNA quantitation.
Yarrowia lipolytica ATCC #76982 strains containing plasmids pY5-30, pYZGDG, pYZGMG, pDMW212 and pDMW214 were grown from single colonies in 3 mL MM at 30° C. to an OD600˜1.0. Then, 100 μl of cells were collected by centrifugation, resuspended in 100 μl of histochemical staining buffer, and incubated at 30° C. Staining buffer was prepared by dissolving 5 mg of 5-bromo-4-chloro-3-indolyl glucuronide (X-Gluc) in 50 μl dimethyl formamide, followed by the addition of 5 mL 50 mM NaPO4, pH 7.0.
In a separate experiment, Y. lipolytica Y2034 strains containing plasmids pY5-30, pYGPAT-GUS, pYAT-GUS and pDMW214 were grown from single colonies in 5 mL SD media at 30° C. for 24 hrs to an OD600˜8.0. Then, 1 mL of cells were collected by centrifugation. The remaining cultures were centrifuged and washed 2× with HGM, resuspended in 5 mL each of HGM and allowed to grow at 30° C. further. After 24 and 120 hrs, ˜0.25 mL of each culture were centrifuged to collect the cells. Cell samples were resuspended individually in 100 μl of histochemical staining buffer (supra). Zymolase 20T (5 μl of 1 mg/mL; ICN Biomedicals, Costa Mesa, Calif.) was added to each, and the mixture incubated at 30° C. […]

Row | Molecule | Activity “Rank” [1] | promoter activity by histochemical staining [2]
1 | FBAIN: fructose-bisphosphate aldolase + intron promoter, SEQ ID NO:162 (nucleic acid, listed as Yarrowia lipolytica, misc_feature: Promoter FBAIN) DNA: AAATTGCCCCGGAGAAGACGGCCAGGCCGCCTAGATGACAAATTCAACAACTCACAGCTGACTTTCTGCCATTGCCACTAGGGGGGGGCCTTTTTATATGGCCAAGCCAAGCTCTCCACGTCGGTTGGGCTGCACCCAACAATAAATGGGTAGGGTTGCACCAACAAAGGGATGGGATGGGGGGTAGAAGATACGAGGATAACGGGGCTCAATGGCACAAATAAGAACGAATACTGCCATTAAGACTCGTGATCCAGCGACTGACACCATTGCATCATCTAAGGGCCTCAAAACTACCTCGGAACTGCTGCGCTGATCTGGACACCACAGAGGTTCCGAGCACTTTAGGTTGCACCAAATGTCCCACCAGGTGCAGGCAGAAAACGCTGGAACAGCGTGTACAGTTTGTCTTAACAAAAAGTGAGGGCGCTGAGGTCGAGCAGGGTGGTGTGACTTGTTATAGCCTTTAGAGCTGCGAAAGCGCGTATGGATTTGGCTCATCAGGCCAGATTGAGGGTCTGTGGACACATGTCATGTTAGTGTACTTCAATCGCCCCCTGGATATAGCCCCGACAATAGGCCGTGGCCTCATTTTTTTGCCTTCCGCACATTTCCATTGCTCGGTACCCACACCTTGCTTCTCCTGCACTTGCCAACCTTAATACTGGTTTACATTGACCAACATCTTACAAGCGGGGGGCTTGTCTAGGGTATATATAAACAGTGGCTCTCCCAATCGGTTGCCAGTCTCTTTTTTCCTTTCTTTCCCCACAGATTCGAAATCTAAACTACACATCACACAATGCCTGTTACTGACGTCCTTAAGCGAAAGTCCGGTGTCATCGTCGGCGACGATGTCCGAGCCGTGAGTATCCACGACAAGATCAGTGTCGAGACGACGCGTTTTGTGTAATGACACAATCCGAAAGTCGCTAGCAACACACACTCTCTACACAAACTAACCCAGCTCTCC | 7 | active; also recorded: strongest promoter activity
2 | FBA: Y. lipolytica fructose-bisphosphate aldolase promoter, SEQ ID NO:161 (nucleic acid, listed as Yarrowia lipolytica, misc_feature: Promoter FBA) DNA: TAAACAGTGTACGCAGTACTATAGAGGAACAATTGCCCCGGAGAAGACGGCCAGGCCGCCTAGATGACAAATTCAACAACTCACAGCTGACTTTCTGCCATTGCCACTAGGGGGGGCCTTTTTATATGGCCAAGCCAAGCTCTCCACGTCGGTTGGGCTGCACCCAACAATAAATGGGTAGGGTTGCACCAACAAAGGGATGGGATGGGGGGTAGAAGATACGAGGATAACGGGGCTCAATGGCACAAATAAGAACGAATACTGCCATTAAGACTCGTGATCCAGCGACTGACACCATTGCATCATCTAAGGGCCTCAAAACTACCTCGGAACTGCTGCGCTGATCTGGACACCACAGAGGTTCCGAGCACTTTAGGTTGCACCAAATGTCCCACCAGGTGCAGGCAGAAAACGCTGGAACAGCGTGTACAGTTTGTCTTAACAAAAAGTGAGGGCGCTGAGGTCGAGCAGGGTGGTGTGACTTGTTATAGCCTTTAGAGCTGCGAAAGCGCGTATGGATTTGGCTCATCAGGCCAGATTGAGGGTCTGTGGACACATGTCATGTTAGTGTACTTCAATCGCCCCCTGGATATAGCCCCGACAATAGGCCGTGGCCTCATTTTTTTGCCTTCCGCACATTTCCATTGCTCGGTACCCACACCTTGCTTCTCCTGCACTTGCCAACCTTAATACTGGTTTACATTGACCAACATCTTACAAGCGGGGGGCTTGTCTAGGGTATATATAAACAGTGGCTCTCCCAATCGGTTGCCAGTCTCTTTTTTCCTTTCTTTCCCCACAGATTCGAAATCTAAACTACACATCACACAATGCCTGTTACTGACGTCCTTAAGCGAAAGTCCGGTGTCATCGTCGGCGACGATGTCCGAGCCGTGAGTATCCACGACAAGATCAGTGTCGAGACGACGCGTTTTGTGTAATGACACAATCCGAAAGTCGCTAGCAACACACACTCTCTACACAAACTAACCCAGCTCTCC | 4 | active; also recorded: much stronger than all the other promoters
